Molecular target: actin from rabbit skeletal muscle (G-actin polymerized to F-actin) (rabbit) (UniProt P68135)

MBP-DRR1 dC (recombinant murine DRR1 lacking the C-terminal domain, MBP fusion) (domain or fragment), sequence (Q78TU8 whole entry, the tested form may be a part): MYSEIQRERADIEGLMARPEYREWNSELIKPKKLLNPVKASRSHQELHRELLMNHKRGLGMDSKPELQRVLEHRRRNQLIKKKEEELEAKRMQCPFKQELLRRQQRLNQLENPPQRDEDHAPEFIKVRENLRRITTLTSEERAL

barbed end filament elongation rate in the presence of profilin (1.5 µM), TIRF microscopy, R = 0.5: 36 % of control
Substance: MBP-DRR1 dC (recombinant murine DRR1 lacking the C-terminal domain, MBP fusion) (domain or fragment)

Source: PMC6321462
